assay: soluble on expression in E. coli; label from the status in PepcDB or PDB records

Soluble on expression in E. coli, soluble:
MQSWYLLYCKRGQLQRAQEHLERQAVNCLAPMITLEKIVRGKRTAVSEPLFPNYLFVEFDPEVIHTTTINATRGVSHFVRFGASPAIVPSAVIHQLSVYKPKDIVDPATPYPGDKVIITEGAFEGFQAIFTEPDGEARSMLLLNLINKEIKHSVKNTEFRKL
MNRVEPPYDVKEALVFTQKMAQLSKALWKSIEKDWQQWLKPYDLNINEHHILWIAYQLNGASISEIAKFGVMHVSTAFNFSKKLEERGYLRFSKRLNDKRNTYVQLTEEGTEVFWSLLEEFDPTRNAVFKGSQPLYHLFGKFPEVAEMMCMIRHIYGDDFMEIFETSLTNIDNDFESVNGKLKKKAKDSAADEPAEELEPVNS
SVERIYQKKTQLEHILLRPDTYIGSVELVTQQMWVYDEDVGINYREVTFVPGLYKIFDEILVNAADNKQRDPKMSCIRVTIDPENNLISIWNNGKGIPVVEHKVEKMYVPALIFGQLLTSSNYDDDEKKVTGGRNGYGAKLCNIFSTKFTVETASREYKKMFKQTWMDNMGRAGEMELKPFNGEDYTCITFQPDLSKFKMQSLDKDIVALMVRRAYDIAGSTKDVKVFLNGNKLPVKGFRSYVDMYLKDKLDETGNSLKVIHEQVNHRWEVCLTMSEKGFQQISFVNSIATSKGGRHVDYVADQIVTKLVDVVKKKNKGGVAVKAHQVKNHMWIFVNALIENPTFDSQTKENMTLQPKSFGSTCQLSEKFIKAAIGCGIVESILNWVKFKAQVQLNKKCS
MSHHHHHHAGIFTFEEPVTHVSESIGIMEVKVLRTSGARGNVIVPYKTIEGTARGGGEDFEDTCGELEFQNDEIVKIITIRIFDREEYEKECSFSLVLEEPKWIRRGMKGGFTITEEYDDKQPLTSKEEEERRIAEMGRPILGEHTKLEVIIEESYEFKSTVD
MKPPPRRRAAPARYLGEVTGPATWSAREKRQLVRLLQARQGQPEPDATELARELRGRSEAEIRVFLQQLKGRVAREAIQKVHPGGLQGPRRREAQPPAPIEVWTDLAEKITGPPEEAVAVAFSQVLTIAATEPVTLLHSKPPKPTQARGKPLLLSAPGGQEDPAPEIPSSAPAAPSSAPRTPDPAPEKPSESSAGPSTEEDFAVDFEKIYKYLSSVSRSGRSPELSAAESAVVLDLLMSLPEELPLLPCTALVEHMTETYLRLTAPQPIPAGGSLGPAAEGVGAGSKAPEETPPATEKAEHSELKSPWQAAGICPLNPFLVPLELLGRAATPAR
MKNPCNVIAIIGKPRDQQAIQTHKELYEWLTSEGYKVFIDDRLAAILDEIPQNHFASLVELGKNADLAIVVGGDGNMLGAARILSRFDVPVIGVNRGNLGFLTDLNPDDFQAALKAVLAGEYIEEERFLLEAEVHRHGQIKSHNAALNEAVLHPGQIAHMIEFEVYIDESFAFSLRADGLIVSTPTGSTAYSLSGGGPILSPSLNAISLVPMFPHTLSSRPLVVDGKRRIKLIVSPENRGTQEVSCDGQVSLPVSPGDEIHIYQSPNVLKLIHPKDYSYYHVLRNKLGWSSKLFMAGDPLEHHHHHH
MNAEDVKGFFASRESLDMEQYLVLDYYLESVGDIETALAHFCSEQSTAQWKRVGVDEDFRLVHAAKVIDYEVIEELEQLSYPVKHSETGKIHACRVTIAHPHCNFGPKIPNLLTAVCGEGTYFTPGVPVVKLMDIHFPDTYLADFEGPKFGIEGLRDILNAHGRPIFFGVVKPNIGLSPGEFAEIAYQSWLGGLDIAKDDEMLADVTWSSIEERAAHLGKARRKAEAETGEPKIYLANITDEVDSLMEKHDVAVRNGANALLINALPVGLSAVRMLSNYTQVPLIGHFPFIASFSRMEKYGIHSKVMTKLQRLAGLDAVIMPGFGDRMMTPEEEVLENVIECTKPMGRIKPCLPVPGGSDSALTLQTVYEKVGNVDFGFVPGRGVFGHPMGPKAGAKSIRQAWEAIEQGISIETWAETHPELQAMVDQSLLKKQD
MTDKYRLRERVWDDLEDSGVARFPFPPHGRIPNYAGADEAAARLTETDVWQRAETVKANPDAPQLPVRRAALRAGKTLYAAVPRLRDEECFLRLDPTTIDDIDAATTVSGIEEYGDPVGPGDVDPIDLIVSGSVAVTDRGERVGKGEGYSDLEFALLRAFGRVDDDTATVTTVHERQVVDDAVPTAAHDVPMEYVVTPDRTITTTHEDDTPSGIDWDALDEQRLAEIPVLDRRSP
MPKVYNSIVVDAPVERVWSRIRNFHDFSWAPSLIKSCKKVGGGGGYSVGARRLLNGEFLDTLIAYSEIERRIMYSMDEGPSPVSSGEIYNYVGNLHLLPVTIDDTTFVEWSGSWESASTEAVEYMNTVYRSLLADLAAEFTSESRRSEWIDQLEHHHHHH

Soluble on expression in E. coli, not soluble:
MGSDKIHHHHHHMLIFQYDFKIEFYNTVNSKNSIGGRLSGLRPRVVITTQNGAPDLNIFIQNTYSENNLITSKKAKLQIFNVPLDFSDFKTADIVKIYYKKFSDQQDYQFIMAGYLGAPVERIGGAENFSFECELYLLSRATFLERKFEYKNFKGSTIADAINYAFKDKAIFFMNELEKTKVIKESFACNSPKGLIEYLRRQGYVDAVIVDIGNPGQDVDLKFIFMNFEQFGAAEYKRLEDYGLLFVPQKDALGFKSGLSLYQAQVMFTHNIKIADNLSFKDRHGNTLDCKVKNTSARLSSTRECVLNLELYSKGEMYYAK
MGSDKIHHHHHHMLAEERQQMIAHYVDEHQICRVTELCRLTSTSESTIRRDLSEMEDRGLLKRVHGGAQSLQTFGQDVAQQIRFNLNKDDKLAIARLAARKVHPHDYLFLDAGTTIYEMVPFLKEISGLHVVTNGLETALALTDAGIDCCLLGGHVKRQTHAAIGATTVSRLQELNFNAAFIGANALSPAGFLTTPDTEEAAVKRTAIQQSQQAFVLIDRSKFNAVTFAEFAKTDQVTIISRLEAGDREKLPVNIQLEEAE
GPGSMSVLVKGWGRGTCKINHIRDDDISSSESEGDDANVAVPLEELNVGTQHMITEEMRFRLRRKEKLSVQDDELGRLREAMRRQVFASGLLQPGQSAGVAPRRAEIIFSCAVEIQSSGLMEEAPTASPRVGDTSAWLKQLRKFILDRVPFQRSVRVMVPRTWLARAQETDVV
MMQVLTRPPSGMPALVLNADFRPLSYYPLSLWPWQEVIKAVFLDRVDVVASYDQVIHSPSCEMRLPSVVALKQYVPQERPPAFTRFNLFLRDSFSCQYCGSPEDLTFDHVIPRSRGGRTTWENIVTACAPCNLSKGGRTPREAGMQPFHTARRPSMYELQERGRRFPPGRLHVSWLDYLYWDIELEALEHHHHHH
MNEVLELKEELLQIKNNNYAVPEDVDAYPYAQWMLDYIGSPDAELRDDLIYSTLHTWITNDVFRQKELRGLMLQAISPDYLFYKIGEKGTDSVFKRAFSVLIPPLILSVHEREPLLSEEQLYSVAEQVLEYVYLEEDVRGYVEGKGWAHSTAHAADALDALARTIQNREFSYAILAAVRQKVRLSDYVYVHFEDERLVKPIMSLHNQKLLTEEEWSNWLHSIATVEDIRHPQHAILVQNIRSFLRSLYFRVLETEGSTAFTDDILETLKGLRRY
MAKYEEAFKRQVVQEYLRGAVGTAGLSQKYGIGRSVIRRWINAWQRHGKSGLRKKHEAYSAEFKLTVLQRMWRDELSYQQVSAVFDLREAGGVSRWDRQYHEGGFDALQPRRKGGAPIMSQSKQDPQPAAQPAQDERSREDLLKENECLRAEVAYLKKLDALLRAKQQQAPKKKRKSLEHHHHHH
MKKVLIVLLVLLTSFGFSENLDKYESKRVFDKSIQFILDGNYEKLKNDTEMSRVAGNITDAAEAIFAKARPMLKEHKYKVIDVKEKKDISELTVKVEYKVYENVSQEESENFMIKFQEELDEETEEAADIYDKKVQKLLQDNIKSKGIIKDKIIKVYMDKEYGYWDLATDKNEDLLLTLFSVIDSLGLY
MGYKELLLECQKLLNEGDFEGMIKKLEELSKMEPSSKEEAEESLKLLDFLIEEVKKRQEEIFNKMVNYQKFKNYLR
MGSDKIHHHHHHMHVIVKNRYTQEIIHFFLENCRTESLRRSSIYAADFLYGKDQGFFIELRERISNYLDRNVDRISIEIASETGKPFKYIREEILQTIREIKSIRIPEDLHEFVKPGVSALNYNCNDPVLSLFVPLFATILQGSPVLVFANPYNFVSAHIIISMLSEIGLPEGVVNVIPFKPNFNYAYLYGENFSYFQDTYDGLGINRIIQSERHKPATVLWGDIDPDSAVSEFTKRLVRMPFSNEQLLVVDRRMFEYVLNRLKEELSRIVVGDPADGATDLGPVTKDEDLMEALSIVGKYRVERLLAMFRGVEGNLMKPAIILTDDVVKDPFVHAPLVYLVNSASVEDAVNLINEVEADRCALFSDDSKLLKMLYGRTACKEISFNSYMYKDYLFKPFLVKRKILM
MGSDKIHHHHHHMSIPNAIKHTQTDSALSNIALSNTRDHLLTTGYKLIAQKGFTAVGIKQILDTAGVPKGSFYHYFASKEAFGEAIISHYFTQYKQRLNIIGSQDVSAQQKLYDYFQNWYDTQQSGCDHEKCLVVKLSAEVSDMSEPMRKVLHTGYQQTITWLATQIKAGWVDGSVPHPANVAAESMAKRWYFAWLGASLVTKISQTDTPLAEAWLMTTTAMGR
MGSDKIHHHHHHMRKLKKYKPTAFIADGSYYDEDAADYAVAFIEALSHTKGLWAGKPFELIDWQEQIIRDLFGILKPDGYRQFNTAYVEIPKKMGKSELAAAIALLLTCGDGEERAEVYGCAADRQQASIVFEVAADMVRMCPALNKRVKLLASTKRLVYLPTNSFYQVLSAEAYSKHGFNIHGVVFDELHTQPNRKLFDVMTKGSGDARTQPLYFLITTAGTDTQSICYETHQKAVDIIEGRKYDPTFYPVIYGAKEEDDWTDPKVWKKANPSLGITVGIDKVRAACESAKQNPAEENSFRQLRLNQWVKQSVRWMPMAKWDACAFPVIPESLEGRVCYGGLDLSSTTDITAFVLVFPPEDETDKYIVLPYFWMPEDNIDLRVRRDHVQYDLWEKQGYILTTEGNVVHYGYIERFIEELGEKYNIREIAFDRWGAVQMVQNLEGAGFTVVPFGQGFKDMSPPTKELMKLTLEERIAHGGHPVLRWMMDNIFIKTDPAGNVKPDKEKSTEKIDGAVATIMALDRAIRCGSGNSGDSVYDERGLIVF
MTGFDFSDKTVWVTGAGKGIGYATALAFVDAGARVIGFDREFTQENYPFATEVMDVADAAQVAQVCQRVLQKTTRLDVLVNAAGILRMGATDALSVDDWQQTFAVNVGGAFNLFSQTMAQFRRQQGGAIVTVASDAAHTPRIGMSAYGASKAALKSLALTVGLELAGCGVRCNVVSPGSTDTDMQRTLWVSEDAEQQRIRGFGEQFKLGIPLGKIARPQEIANTILFLASDLASHITLQDIVVDGGSTLGA
MGSDKIHHHHHHMPGICLCFQVHRPVILKRYTFFDIGRHHLYEDQEANRRILNQLADSCYLPANRLLLRLMEKSEGRFRVAFALSGAMIHLCEKYRQDIMEGFRRLADTGCVEFLNEADPHSLAFLFSPREFREQIEAHKKKIQELFGQNPTTFHCTDLIYSNELAGVAEEMGHSAFLAEGGQGLPGFQGPDFVYQPADCARLKLLLRNYHLSADIRLHFSDGSRNGHPFPAGWFAERILHSLENSGGQVVNLFLDYETSGKYLTPDRGNSEFLQALSAEMLGQPDFHFQLPAEIAQRYDPQARLDVTDSASGFDIHRNLTTVAGNAMQQDALRVLYDLEEAVRKRKDADCLAIWRMLQTSDYFNYMCTEGFADRVRRRDSGPYGSPYESYINYMNILEDFSRTLQS

Source: the DeepSol protein solubility set
